Source: paper PMC9696180

Tests used:
αVβ3 integrin [1] = molecular target: αVβ3 integrin (UniProt P06756)
αVβ3 integrin [2] = molecular target: αVβ3 integrin (UniProt P06756); test: BLI; Octet Red 96; biotinylated αVβ3 integrin on streptavidin (SAX) biosensors, usGNPs in solution, association 40-60 min; 50 mM HEPES pH 7.4, 150 mM NaCl, 5 mM KCl, 0.1% BSA, 0.05% Tween 20, 50 µM CaCl2; 30 °C; Kd approximated from the response at equilibrium against usGNP concentration, fit to the Hill equation
αVβ3 integrin [3] = molecular target: αVβ3 integrin (UniProt P06756); remark: listed apart in the source

Row | Substance | uptake by U-87 MG cells (high αVβ3 integrin), 1 × 10^8 particles per cell, 60 min, internalised gold by ICP-MS (usGNPs per cell) (αVβ3 integrin [1]) | Kd (αVβ3 integrin [2]) | cytotoxicity on αVβ3 integrin expressing U-87 MG cells (XTT viability, 3 days), IC50 in DM1 equivalent concentration; DM1-usGNP without cRGD 25.2 nM (αVβ3 integrin [3])
1 | LowcRGD-usGNP, (α-Galactose-C2)145(PEG(8)COOH)125(cRGD)20@Au2000 | 4.9e+06 | 3.2 nM | –
2 | DM1-cRGD-usGNP, (α-Galactose-C2)135(PEG(8)COOH)115(cRGD)20(DM1)20@Au2000 | – | – | 5 nM

Second part, led by results:

Row | uptake by U-87 MG cells (high αVβ3 integrin), 1 × 10^8 particles per cell, 60 min, internalised gold by ICP-MS (usGNPs per cell) (αVβ3 integrin [1]) | Kd (αVβ3 integrin [2]) | Substance | cytotoxicity on αVβ3 integrin expressing U-87 MG cells (XTT viability, 3 days), IC50 in DM1 equivalent concentration; DM1-usGNP without cRGD 25.2 nM (αVβ3 integrin [3])
3 | 1.67e+07 | 0.0292 nM | HighcRGD-usGNP, (α-Galactose-C2)145(PEG(8)COOH)85(cRGD)60@Au2000 | –
4 | 2.7e+06 | – | HighcRAD-usGNP, (α-Galactose-C2)145(PEG(8)COOH)85(cRAD)60@Au2000 | –
5 | 1.6e+06 | – | LowcRAD-usGNP, (α-Galactose-C2)145(PEG(8)COOH)125(cRAD)20@Au2000 | –
